Assay results as given in patent US12545899B2, “Luciferase enzymes for use with thermostable luciferins in bioluminescent assays” (Promega Corporation, priority 2018, dated 2026).

Tests used:
[1] = Kinetic analysis of thermostable variants with D/L-luciferin (Tables 13, 14); type: biochemical; settings: 2 mM ATP
Excerpt: (§1) Tables 13 and 14 include representative results of kinetic analysis of the thermostable variants with D/L luciferin, CS0333, and CS0280. The panel of enzyme variants highlight amino acid substitutions that further improve upon MK0137 in maximum luminescence (Vmax) or Km in different buffers with the different substrates tested (D/L-luciferin, CS0333, and CS0280). In particular, enzyme variants MK0151 and MK153 show improvements relative to MK0137 across multiple buffers with multiple substrates.

[2] = Kinetic analysis of thermostable variants with CS0280 (Tables 13, 14); type: biochemical; settings: 2 mM ATP
Excerpt: as §1

[3] = Luminescence at 1 mM D/L-luciferin (Table 11); type: biochemical; settings: 1 mM substrate, 1 mM ATP
Excerpt: (§2) Tables 10 and 11 include representative results of kinetic analysis of the thermostable variants with D/L luciferin, CS0333, and CS0280. […] MK0135 and MK0137 have amino acid substitutions that improve thermostability relative to MK0133 and MK0134, respectively, while retaining activity on the luciferin analogs CS0333 and CS0280.

[4] = Kinetic analysis of thermostable variants with CS0333 (Tables 13, 14); type: biochemical; settings: 2 mM ATP
Excerpt: as §1

[5] = Luminescence at 1 mM CS0333 (Table 11); type: biochemical; settings: 1 mM substrate, 1 mM ATP
Excerpt: as §2

[6] = Luminescence at 1 mM CS0280 (Table 11); type: biochemical; settings: 1 mM substrate, 1 mM ATP
Excerpt: as §2

[7] = Differential scanning fluorimetry (DSF) analysis; type: physicochemical; settings: Table 12
Procedure, shortened: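 Thermal melt with 5× final Sypro Orange: ramp 1° C/min from 30 to 95° C, reading each 60 s, derivative of fluorescence plotted by temperature. Luciferase variants were in 20 mM HEPES pH 7.5, 200 mM NaCl, 1 mM EDTA; other enzymes in 50 mM HEPES pH 7.5, 100 mM NaCl, 2 mM EDTA.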

[8] = Kinetic analysis of thermostable variants with 400 fM-4 mM CS0280 (Table 12); type: biochemical; settings: 4 mM ATP
Experimental: Table 12 includes representative results of kinetic analysis of the thermostable variants with 400 fM-4 mM CS0280. This panel of enzyme variants have a combination of improved thermostability and brightness with CS0280 relative to their progenitor enzyme variants MK134 and MK137.

Molecule | Km ([1]; BrightGlo Buffer) | Vmax (RLU) ([1]; BrightGlo Buffer) | Km ([1]; Detection Reagent Buffer) | Vmax (RLU) ([1]; Detection Reagent Buffer) | Km ([2]; BrightGlo Buffer) | Vmax (RLU) ([2]; BrightGlo Buffer) | Km ([2]; Detection Reagent Buffer) | Vmax (RLU) ([2]; Detection Reagent Buffer) | Vmax (RLU) D/L-luciferin BrightGlo Buffer [3] | Vmax (RLU) D/L-luciferin Detection Reagent Buffer [3] | Km ([4]; BrightGlo Buffer) | Vmax (RLU) ([4]; BrightGlo Buffer) | Km ([4]; Detection Reagent Buffer) | Vmax (RLU) ([4]; Detection Reagent Buffer) | Vmax (RLU) CS0333 BrightGlo Buffer [5] | DSF Tm (° C.) [7] | Km ([8]; BrightGlo Buffer) | Vmax (RLU) ([8]; BrightGlo Buffer) | Km ([8]; Detection Reagent Buffer) | Vmax (RLU) ([8]; Detection Reagent Buffer) | further results
MK0148: SEQ ID NO: 114; H244W+S193A+N228D+L305F+S306P+I109V+C38R+F55I+Y108F+A316W+Y339M+T342S+V348I+C257R+T289S+S313T+D435G+L437R+W510R (protein) MADKNILYGPEPFYPLEDGTAGEQMFDALSRYAAIPGRIALTNAHTKENVLYEEILKLSCRLAESFKKYGLKQNDTIAVCSENSLQFFLPVIASLYLGIIVAPVNDKFVERELIHSLGIVKPRIVFCSKNTFQKVLNVKSKLKSIETIIILDLNEDLGGYQCLNNFISQNSDSNLDVKKFKPYSFNRDDQVAAIMFSSGTTGLPKGVMLTHKNIVARFSIAKDPTFGDAINPTSAILTVIPFHWGFGMMTTLGYFTCGFRVVLMHTFEEKLFLQSLQDYKVESTLLVPTLMAFLAKSALVEKYDFPHLKEIATGGWPLSKEIGEMVKKRFKLNFVRQGMGLSETTSAILITPKGDAKPGSTGKIVPLHAVKVVDPTTGKILGPNEPGELYFKGPMIMKGYYNNEEATKAIIDNDGWLRSGDIAYYDNDGHFYIVGRRKSLIKYKGYQVAPAEIEGILLQHPYIVDAGVTGIPDEAAGELPAAGVVVQTGKYLNEQIVQDYVASQVSTAKWLRGGVKFLDEIPKGSTGKIDRKVLRQMLEKHTNGHHHHHHHH | 0.0737 µM | 1,993,509 RLU | 0.21 µM | 332,703 RLU | 8.94 µM | 359,383 RLU | 619 µM | 26,247 RLU | 1,227,230 RLU | 515,688 RLU | 8.44 µM | 2,895,248 RLU | 48.4 µM | 543,865 RLU | 3,525,730 RLU |  |  |  |  |  | Vmax (RLU) CS0333 Detection Reagent Buffer [5]: 2,139,740 RLU; Vmax (RLU) CS0280 BrightGlo Buffer [6]: 620,182 RLU; Vmax (RLU) CS0280 Detection Reagent Buffer [6]: 21,505 RLU
MK0149: SEQ ID NO: 115; H244W+S193A+N228D+L305F+S306P+I109V+C38R+F55I+Y108F+A316W+Y339M+T342S+V348I+C257R+T284A+T289S+L437R (protein) MADKNILYGPEPFYPLEDGTAGEQMFDALSRYAAIPGRIALTNAHTKENVLYEEILKLSCRLAESFKKYGLKQNDTIAVCSENSLQFFLPVIASLYLGIIVAPVNDKFVERELIHSLGIVKPRIVFCSKNTFQKVLNVKSKLKSIETIIILDLNEDLGGYQCLNNFISQNSDSNLDVKKFKPYSFNRDDQVAAIMFSSGTTGLPKGVMLTHKNIVARFSIAKDPTFGDAINPTSAILTVIPFHWGFGMMTTLGYFTRGFRVVLMHTFEEKLFLQSLQDYKVESALLVPSLMAFLAKSALVEKYDFPHLKEIASGGWPLSKEIGEMVKKRFKLNFVRQGMGLSETTSAILITPKGDAKPGSTGKIVPLHAVKVVDPTTGKILGPNEPGELYFKGPMIMKGYYNNEEATKAIIDNDGWLRSGDIAYYDNDGHFYIVDRRKSLIKYKGYQVAPAEIEGILLQHPYIVDAGVTGIPDEAAGELPAAGVVVQTGKYLNEQIVQDYVASQVSTAKWLRGGVKFLDEIPKGSTGKIDRKVLRQMLEKHTNGHHHHHHHH | 0.0482 µM | 351,895 RLU | 0.26 µM | 33,641 RLU | 5.6 µM | 652,464 RLU | 678 µM | 44,058 RLU | 416,355 RLU | 52,341 RLU | 4.89 µM | 1,336,251 RLU | 48.4 µM | 353,432 RLU | 1,433,640 RLU |  |  |  |  |  | Vmax (RLU) CS0333 Detection Reagent Buffer [5]: 1,270,240 RLU; Vmax (RLU) CS0280 BrightGlo Buffer [6]: 1,368,890 RLU; Vmax (RLU) CS0280 Detection Reagent Buffer [6]: 57,404 RLU
MK0145: SEQ ID NO: 111; H244W+S193A+N228D+L305F+S306P+I109V+C38R+F55I+Y108F+A316W+Y339M+T342S+V348I+D435G (protein) MADKNILYGPEPFYPLEDGTAGEQMFDALSRYAAIPGRIALTNAHTKENVLYEEILKLSCRLAESFKKYGLKQNDTIAVCSENSLQFFLPVIASLYLGIIVAPVNDKFVERELIHSLGIVKPRIVFCSKNTFQKVLNVKSKLKSIETIIILDLNEDLGGYQCLNNFISQNSDSNLDVKKFKPYSFNRDDQVAAIMFSSGTTGLPKGVMLTHKNIVARFSIAKDPTFGDAINPTSAILTVIPFHWGFGMMTTLGYFTCGFRVVLMHTFEEKLFLQSLQDYKVESTLLVPTLMAFLAKSALVEKYDFPHLKEIASGGWPLSKEIGEMVKKRFKLNFVRQGMGLSETTSAILITPKGDAKPGSTGKIVPLHAVKVVDPTTGKILGPNEPGELYFKGPMIMKGYYNNEEATKAIIDNDGWLRSGDIAYYDNDGHFYIVGRLKSLIKYKGYQVAPAEIEGILLQHPYIVDAGVTGIPDEAAGELPAAGVVVQTGKYLNEQIVQDYVASQVSTAKWLRGGVKFLDEIPKGSTGKIDRKVLRQMLEKHTNGHHHHHHHH | 0.136 µM | 334,536 RLU | 0.227 µM | 41,310 RLU | 5.72 µM | 368,599 RLU | 391 µM | 38,794 RLU |  |  | 6.83 µM | 2,891,897 RLU | 21.5 µM | 591,292 RLU |  | 72 °C | 11.9 µM | 1,193,838 RLU | 50.6 µM | 66,768 RLU | 
MK0139: SEQ ID NO: 107; H244W+S193A+N228D+L305F+S306P+I109V+C38R+F55I+Y108F+A316W+Y339M+T342S+V348I+I240V (protein) MADKNILYGPEPFYPLEDGTAGEQMFDALSRYAAIPGRIALTNAHTKENVLYEEILKLSCRLAESFKKYGLKQNDTIAVCSENSLQFFLPVIASLYLGIIVAPVNDKFVERELIHSLGIVKPRIVFCSKNTFQKVLNVKSKLKSIETIIILDLNEDLGGYQCLNNFISQNSDSNLDVKKFKPYSFNRDDQVAAIMFSSGTTGLPKGVMLTHKNIVARFSIAKDPTFGDAINPTSAILTVVPFHWGFGMMTTLGYFTCGFRVVLMHTFEEKLFLQSLQDYKVESTLLVPTLMAFLAKSALVEKYDFPHLKEIASGGWPLSKEIGEMVKKRFKLNFVRQGMGLSETTSAILITPKGDAKPGSTGKIVPLHAVKVVDPTTGKILGPNEPGELYFKGPMIMKGYYNNEEATKAIIDNDGWLRSGDIAYYDNDGHFYIVDRLKSLIKYKGYQVAPAEIEGILLQHPYIVDAGVTGIPDEAAGELPAAGVVVQTGKYLNEQIVQDYVASQVSTAKWLRGGVKFLDEIPKGSTGKIDRKVLRQMLEKHTNGHHHHHHHH |  |  |  |  |  |  |  |  |  |  |  |  |  |  |  | 72 °C | 15.7 µM | 764,421 RLU | 128 µM | 35,633 RLU | 
MK0147: SEQ ID NO: 113; H244W+S193A+N228D+L305F+S306P+I109V+C38R+F55I+Y108F+A316W+Y339M+T342S+V348I+W510R (protein) MADKNILYGPEPFYPLEDGTAGEQMFDALSRYAAIPGRIALTNAHTKENVLYEEILKLSCRLAESFKKYGLKQNDTIAVCSENSLQFFLPVIASLYLGIIVAPVNDKFVERELIHSLGIVKPRIVFCSKNTFQKVLNVKSKLKSIETIIILDLNEDLGGYQCLNNFISQNSDSNLDVKKFKPYSFNRDDQVAAIMFSSGTTGLPKGVMLTHKNIVARFSIAKDPTFGDAINPTSAILTVIPFHWGFGMMTTLGYFTCGFRVVLMHTFEEKLFLQSLQDYKVESTLLVPTLMAFLAKSALVEKYDFPHLKEIASGGWPLSKEIGEMVKKRFKLNFVRQGMGLSETTSAILITPKGDAKPGSTGKIVPLHAVKVVDPTTGKILGPNEPGELYFKGPMIMKGYYNNEEATKAIIDNDGWLRSGDIAYYDNDGHFYIVDRLKSLIKYKGYQVAPAEIEGILLQHPYIVDAGVTGIPDEAAGELPAAGVVVQTGKYLNEQIVQDYVASQVSTAKRLRGGVKFLDEIPKGSTGKIDRKVLRQMLEKHTNGHHHHHHHH |  |  |  |  |  |  |  |  |  |  |  |  |  |  |  | 71 °C | 7.12 µM | 1,101,042 RLU | 26.1 µM | 62,099 RLU | 
